Assays:
绵羊IgG (绵羊 (sheep)) [1] = test: indirect ELISA, IgG coated at 1 ug/mL, HRP goat anti-mouse IgG detection, OD450; settings: scale: reciprocal dilution
牛IgG (牛 (bovine)) [2] = test: as above; settings: scale: reciprocal dilution
山羊IgG (山羊 (goat)) [3] = test: as above; settings: scale: reciprocal dilution
绵羊IgG (绵羊 (sheep)) [4] = test: direct magnetic-particle chemiluminescence, IgG on magnetic particles, HRP-labelled 4C-1 at 1:4000
牛IgG (牛 (bovine)) [5] = test: as above
山羊IgG (山羊 (goat)) [6] = test: as above

B1: 鼠单克隆抗体 二抗4C-1 (antibody, part only; not given: Light chain variable domain, V domains shown, part only)
VH: QVQLKQSGPELVKPGASVKMSCKASGYTFTSYVIHWVKQKPGQGLEWIGYINPYNDNTEYNEKFKGKATLTSDKSSSTAYMELSSLTSEDSAVYYCARREGGYYVFTYWGQGTLVTVSA
> 100000 发光值: 发光值 (luminescence value) (绵羊IgG (绵羊 (sheep)) [4]) | 发光值 (luminescence value) (牛IgG (牛 (bovine)) [5]) | 发光值 (luminescence value) (山羊IgG (山羊 (goat)) [6])
> 256000: 效价 (titer) (绵羊IgG (绵羊 (sheep)) [1]) | 效价 (titer) (牛IgG (牛 (bovine)) [2]) | 效价 (titer) (山羊IgG (山羊 (goat)) [3])
